Experimental data from publication PMC12618267, “GAGA zinc finger transcription factor searches chromatin by 1D–3D facilitated diffusion”.

Key:
[1] = system: T1, HA-GAF-FL (Drosophila melanogaster), Q08605-2; assay: EMSA; details: ~15 nM protein, 3 nM NCP; 12.5 mM HEPES-KOH pH 7.6, 0.05 mM EDTA, 6.25 mM MgCl2, 5% glycerol, 50 mM NaCl, 50 ug/ml BSA, 0.05% NP-40; EMSA at room temperature; smFRET adds dextrose …
T1 sequence: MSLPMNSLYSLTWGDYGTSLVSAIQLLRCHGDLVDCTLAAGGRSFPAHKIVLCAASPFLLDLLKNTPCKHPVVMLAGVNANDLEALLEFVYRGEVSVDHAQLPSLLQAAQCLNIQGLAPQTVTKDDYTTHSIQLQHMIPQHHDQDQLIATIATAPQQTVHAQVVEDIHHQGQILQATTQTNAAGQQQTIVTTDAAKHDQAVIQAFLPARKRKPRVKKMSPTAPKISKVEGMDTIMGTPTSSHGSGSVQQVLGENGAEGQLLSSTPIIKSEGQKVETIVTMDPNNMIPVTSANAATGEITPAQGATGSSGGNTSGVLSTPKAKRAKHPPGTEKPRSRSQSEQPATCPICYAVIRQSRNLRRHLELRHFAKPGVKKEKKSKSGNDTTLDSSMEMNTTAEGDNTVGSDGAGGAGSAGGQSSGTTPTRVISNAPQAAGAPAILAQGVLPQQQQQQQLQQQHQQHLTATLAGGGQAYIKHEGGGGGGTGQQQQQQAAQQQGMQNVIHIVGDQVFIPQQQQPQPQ

[2] = system: T2, Cy3-GAF-DBD / GAF-DBD (Drosophila melanogaster), Q08605-2; assay: EMSA; details: 3 nM DNA; 12.5 mM HEPES-KOH pH 7.6, 0.05 mM EDTA, 6.25 mM MgCl2, 5% glycerol, 50 mM NaCl, 50 ug/ml BSA, 0.05% NP-40; EMSA at room temperature; smFRET adds dextrose …
T2 sequence: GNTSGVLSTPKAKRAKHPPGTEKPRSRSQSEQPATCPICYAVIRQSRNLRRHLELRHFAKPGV

[3] = system: T2, Cy3-GAF-DBD / GAF-DBD (Drosophila melanogaster), Q08605-2; assay: smFRET; details: from koff/kon; dwell 3.1 s; 6.25 mM Mg2+; 12.5 mM HEPES-KOH pH 7.6, 0.05 mM EDTA, 6.25 mM MgCl2, 5% glycerol, 50 mM NaCl, 50 ug/ml BSA, 0.05% NP-40; EMSA at room temperature; smFRET adds dextrose …
[4] = target: SNAP-tagged full-length GAGA factor (MBP–SNAP–GAF–6×His) (Drosophila melanogaster); assay: mass photometry; Refeyn TwoMP; proteins free in solution; optical tweezers imaging buffer without NP-40; 10-min incubation before measuring; at concentrations similar to those of the optical tweezers experiments (80 nM GAF-FL, 25 nM GAF-ΔPOZ)
HA-GAF-FL = target: T3, HA-GAF-FL (Drosophila melanogaster, UniProt Q08605-2 1-519); assay: EMSA; 3 nM DNA; 12.5 mM HEPES-KOH pH 7.6, 0.05 mM EDTA, 6.25 mM MgCl2, 5% glycerol, 50 mM NaCl, 50 ug/ml BSA, 0.05% NP-40; EMSA at room temperature; smFRET adds dextrose, Trolox, glucose oxidase, catalase; details: protein: recombinant; tags: N-terminal HA; chain copies: 6; label: Cy5 at end
T3 sequence: T1 sequence

## GTGTCATTTGTTTGGCAGAAAGAAAACTCGAGAAATTTCTCTGGCCGTTATTCTCTATTCGTTTTGTGACTCTCCCTCTCTGTACTATTGCTCTCTCACTCTGTCGCACAGTAAACGGCACACTGTTCTCGTTGCTTCGAGAGAGCGCGCCTCGAA (double strand) [hsp70 NCP (3-N-6 nucleosome)]
[1]
  binding signal (fold less bound than free DNA): 2

## GTGTCATTTGTTTGGCAGAAAGAAAACTCGAGAAATTTCTCTGGCCGTTATTCTCTATTCGTTTTGTGACTCTCCCTCTCTGTACTATTGCTCTCTCACTCTGTCGCACAGTAAACGGCACACTGTTCTCGTTGCTTCGAGAGAGCGCGCCTCGAA (double strand) [hsp70 NCP DNA (free, 3-N-6)]
[2]
  K half: 12 nM

## GTTTTGTGAGTACGCGCTGTTGTACTATTGTTAACCCACAAGGTCGCACAGTAAACGGCACACTGTACGTGTTGCTTCGAGAGAGCGCGC (double strand) [Cy5-cognate DNA 90 bp]
[3]
  Kd: 0.0115 µM

## SNAP-tagged full-length GAGA factor (MBP–SNAP–GAF–6×His) (natural protein)
[4]
  stoichiometry N: 8

B1: hsp70 NCP DNA (free, 3-N-6) (dsDNA)
DNA 1: GTGTCATTTGTTTGGCAGAAAGAAAACTCGAGAAATTTCTCTGGCCGTTATTCTCTATTCGTTTTGTGACTCTCCCTCTCTGTACTATTGCTCTCTCACTCTGTCGCACAGTAAACGGCACACTGTTCTCGTTGCTTCGAGAGAGCGCGCCTCGAA
DNA 2: TTCGAGGCGCGCTCTCTCGAAGCAACGAGAACAGTGTGCCGTTTACTGTGCGACAGAGTGAGAGAGCAATAGTACAGAGAGGGAGAGTCACAAAACGAATAGAGAATAACGGCCAGAGAAATTTCTCGAGTTTTCTTTCTGCCAAACAAATGACAC
HA-GAF-FL
  binding result: binds
